Test results reported in doi:10.1101/2023.12.11.571162 (2023).

B1: recombinant lipoma HMGIC fusion partner-like protein 5 (LHFPL5), Mus musculus, strep-tagged construct co-expressed with PCDH15 (natural protein)
chain: MVKLLPAQEAAKIYHTNYVRNSRAVGVMWGTLTICFSVLVMALFIQPYWIGDSVSTPQAGYFGLFSYCVGNVLSSELICKGGPLDFSSIPSRAFKTAMFFVALAMFLIIGSIICFSLFFVCNTATVYKICAWMQLAAATGLMIGCLVYPDGWDSSEVRRMCGEQTGKYTLGHCTIRWAFMLAILSIGDALILSFLAFVLGYRQDKLLPDDYKADGNEEV
B2: recombinant protocadherin-15 (PCDH15), Mus musculus, His-tagged construct co-expressed with LHFPL5 (natural protein)
chain: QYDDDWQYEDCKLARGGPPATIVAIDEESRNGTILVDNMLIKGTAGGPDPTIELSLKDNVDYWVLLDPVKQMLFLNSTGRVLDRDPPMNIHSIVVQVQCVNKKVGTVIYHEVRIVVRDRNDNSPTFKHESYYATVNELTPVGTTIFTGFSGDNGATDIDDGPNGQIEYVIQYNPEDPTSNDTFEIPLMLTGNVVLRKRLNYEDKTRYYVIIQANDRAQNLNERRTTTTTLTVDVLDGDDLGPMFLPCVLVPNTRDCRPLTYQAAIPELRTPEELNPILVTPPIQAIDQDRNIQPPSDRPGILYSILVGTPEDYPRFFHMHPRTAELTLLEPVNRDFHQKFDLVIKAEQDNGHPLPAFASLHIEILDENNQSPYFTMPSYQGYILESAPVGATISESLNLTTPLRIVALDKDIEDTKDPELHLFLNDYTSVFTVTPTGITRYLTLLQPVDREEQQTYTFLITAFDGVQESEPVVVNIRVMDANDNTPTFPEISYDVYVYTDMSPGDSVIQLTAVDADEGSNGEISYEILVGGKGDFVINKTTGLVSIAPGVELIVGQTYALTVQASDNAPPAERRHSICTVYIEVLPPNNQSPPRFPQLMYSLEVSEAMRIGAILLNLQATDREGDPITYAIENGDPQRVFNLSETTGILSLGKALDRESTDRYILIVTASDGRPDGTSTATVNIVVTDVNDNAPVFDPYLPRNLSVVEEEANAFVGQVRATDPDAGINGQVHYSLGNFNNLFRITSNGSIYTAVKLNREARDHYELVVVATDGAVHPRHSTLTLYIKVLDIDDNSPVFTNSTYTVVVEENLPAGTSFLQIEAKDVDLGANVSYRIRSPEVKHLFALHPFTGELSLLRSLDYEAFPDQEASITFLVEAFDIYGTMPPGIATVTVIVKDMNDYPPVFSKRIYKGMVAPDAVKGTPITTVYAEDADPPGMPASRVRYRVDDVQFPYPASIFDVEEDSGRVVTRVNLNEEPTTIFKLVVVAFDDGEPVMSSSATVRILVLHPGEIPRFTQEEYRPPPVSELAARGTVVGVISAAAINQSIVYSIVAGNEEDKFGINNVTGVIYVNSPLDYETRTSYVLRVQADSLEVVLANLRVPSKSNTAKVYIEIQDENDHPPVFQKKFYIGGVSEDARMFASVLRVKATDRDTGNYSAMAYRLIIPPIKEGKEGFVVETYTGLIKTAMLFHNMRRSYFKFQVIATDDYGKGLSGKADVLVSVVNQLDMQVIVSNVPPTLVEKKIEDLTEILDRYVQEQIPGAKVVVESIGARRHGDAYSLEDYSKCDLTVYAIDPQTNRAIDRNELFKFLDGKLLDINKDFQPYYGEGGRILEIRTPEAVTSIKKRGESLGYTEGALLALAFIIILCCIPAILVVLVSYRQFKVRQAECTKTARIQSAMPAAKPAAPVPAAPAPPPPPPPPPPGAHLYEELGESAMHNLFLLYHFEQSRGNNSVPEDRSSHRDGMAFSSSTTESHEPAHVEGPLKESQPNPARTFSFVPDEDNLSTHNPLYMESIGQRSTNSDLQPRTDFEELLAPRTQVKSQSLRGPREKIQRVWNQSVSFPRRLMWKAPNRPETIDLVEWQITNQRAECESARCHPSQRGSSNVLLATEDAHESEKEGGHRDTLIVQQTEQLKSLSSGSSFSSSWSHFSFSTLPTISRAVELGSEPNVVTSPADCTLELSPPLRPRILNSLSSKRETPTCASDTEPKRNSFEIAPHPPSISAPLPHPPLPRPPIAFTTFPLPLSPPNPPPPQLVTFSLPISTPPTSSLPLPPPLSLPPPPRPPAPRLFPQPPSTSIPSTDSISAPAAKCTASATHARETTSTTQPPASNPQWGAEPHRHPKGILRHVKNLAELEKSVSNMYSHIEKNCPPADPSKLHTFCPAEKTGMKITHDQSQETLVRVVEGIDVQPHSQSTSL

Tests used:
Assay in all cases: BLI
[1] = target: anti-LHFPL5
[2] = target: 39G7
Chain of 39G7 (Q99PJ1 27-1943): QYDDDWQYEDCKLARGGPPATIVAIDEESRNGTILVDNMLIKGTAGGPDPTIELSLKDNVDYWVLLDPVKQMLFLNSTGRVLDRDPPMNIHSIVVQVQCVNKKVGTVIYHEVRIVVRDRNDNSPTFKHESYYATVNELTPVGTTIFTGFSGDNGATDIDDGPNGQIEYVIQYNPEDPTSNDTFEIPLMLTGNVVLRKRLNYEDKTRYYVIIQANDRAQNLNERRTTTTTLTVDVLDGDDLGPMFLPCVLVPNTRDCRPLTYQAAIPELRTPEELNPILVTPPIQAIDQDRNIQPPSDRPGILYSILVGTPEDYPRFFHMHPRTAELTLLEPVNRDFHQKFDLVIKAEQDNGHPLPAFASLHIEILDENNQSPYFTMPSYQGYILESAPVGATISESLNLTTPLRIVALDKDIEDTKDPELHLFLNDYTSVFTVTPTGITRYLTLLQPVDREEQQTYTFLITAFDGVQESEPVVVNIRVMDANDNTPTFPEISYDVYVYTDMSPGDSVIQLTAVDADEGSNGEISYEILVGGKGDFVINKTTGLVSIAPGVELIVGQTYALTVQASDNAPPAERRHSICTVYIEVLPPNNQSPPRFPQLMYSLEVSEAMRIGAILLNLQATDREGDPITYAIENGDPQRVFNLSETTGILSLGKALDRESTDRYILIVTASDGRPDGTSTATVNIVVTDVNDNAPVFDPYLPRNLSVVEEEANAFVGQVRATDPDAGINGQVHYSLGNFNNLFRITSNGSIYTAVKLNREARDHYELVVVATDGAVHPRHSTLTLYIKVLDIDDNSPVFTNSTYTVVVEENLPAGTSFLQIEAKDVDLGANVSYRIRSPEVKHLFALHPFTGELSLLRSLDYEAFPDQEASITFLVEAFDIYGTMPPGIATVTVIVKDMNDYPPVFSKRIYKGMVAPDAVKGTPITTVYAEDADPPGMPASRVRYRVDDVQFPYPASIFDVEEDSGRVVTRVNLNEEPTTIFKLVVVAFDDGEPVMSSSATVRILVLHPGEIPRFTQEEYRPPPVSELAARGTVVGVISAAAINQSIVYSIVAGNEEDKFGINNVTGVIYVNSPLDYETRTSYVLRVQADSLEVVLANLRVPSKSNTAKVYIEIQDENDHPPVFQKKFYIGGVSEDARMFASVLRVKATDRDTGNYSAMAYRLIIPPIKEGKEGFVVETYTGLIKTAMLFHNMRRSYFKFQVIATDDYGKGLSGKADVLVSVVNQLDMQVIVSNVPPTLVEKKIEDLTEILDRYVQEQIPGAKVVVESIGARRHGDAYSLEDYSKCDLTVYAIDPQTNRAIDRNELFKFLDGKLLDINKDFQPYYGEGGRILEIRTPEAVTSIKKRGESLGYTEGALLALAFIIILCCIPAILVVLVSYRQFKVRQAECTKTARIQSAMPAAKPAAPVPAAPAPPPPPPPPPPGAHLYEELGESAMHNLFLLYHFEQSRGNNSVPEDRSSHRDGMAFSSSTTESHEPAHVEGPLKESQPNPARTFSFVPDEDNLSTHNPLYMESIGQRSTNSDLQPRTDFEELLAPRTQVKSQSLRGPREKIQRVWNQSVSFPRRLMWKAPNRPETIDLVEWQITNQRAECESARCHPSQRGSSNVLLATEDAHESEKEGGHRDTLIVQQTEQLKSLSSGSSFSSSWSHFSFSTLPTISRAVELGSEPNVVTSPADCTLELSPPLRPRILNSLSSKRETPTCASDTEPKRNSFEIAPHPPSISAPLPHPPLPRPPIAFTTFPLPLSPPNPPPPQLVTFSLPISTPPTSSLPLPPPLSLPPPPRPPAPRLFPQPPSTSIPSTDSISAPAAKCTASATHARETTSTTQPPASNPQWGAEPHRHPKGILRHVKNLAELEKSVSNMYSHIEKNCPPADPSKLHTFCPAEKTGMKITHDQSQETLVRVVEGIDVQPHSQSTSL

[3] = target: 8D1
Chain of 8D1 (Q99PJ1 27-1943): as above

| Binder | Kd [1] [pM] | koff [1] [s⁻¹] | Kd [2] [pM] | koff [2] [s⁻¹] | Kd [3] [pM] | koff [3] [s⁻¹] |
| --- | --- | --- | --- | --- | --- | --- |
| B1 | 1000 | 5e-05 | – | – | – | – |
| B2 | – | – | 200 | 2e-05 | 50 | 3e-05 |
